B1: recombinant human VWF-A1 containing 1309I>V and 1326H>R (ligand)
chain: QEPGGLVVPPTDAPVSPTTLYVEDISEPPLHDFYCSRLLDLVFLLDGSSRLSEAEFEVLKAFVVDMMERLRVSQKWVRVAVVEYHDGSRAYIGLKDRKRPSELRRIASQVKYAGSQVASTSEVLKYTLFQIFSKIDRPEASRIALLLMASQEPQRMSRNFVRYVQGLKKKKVIVIPVGIGPHANLKQIRLIEKQAPENKAFVLSSVDELEQQRDEIVSYLCDLAPEAPPPTLPPH
B2: murine platelet glycoprotein Ib alpha (GPIb α) on mouse platelets (receptor, UniProt O35930 17-734, looked up)
chain: QHTCSISKVTSLLEVNCENKKLTALPADLPADTGILHLGENQLGTFSTASLVHFTHLTYLYLDRCELTSLQTNGKLIKLENLDLSHNNLKSLPSLGWALPALTTLDVSFNKLGSLSPGVLDGLSQLQELYLQNNDLKSLPPGLLLPTTKLKKLNLANNKLRELPSGLLDGLEDLDTLYLQRNWLRTIPKGFFGTLLLPFVFLHANSWYCDCEILYFRHWLQENANNVYLWKQGVDVKDTTPNVASVRCANLDNAPVYSYPGKGCPTSSGDTDYDDYDDIPDVPATRTEVKFSTNTKVHTTHWSLLAAAPSTSQDSQMISLPPTHKPTKKQSTFIHTQSPGFTTLPETMESNPTFYSLKLNTVLIPSPTTLEPTSTQATPEPNIQPMLTTSTLTTPEHSTTPVPTTTILTTPEHSTIPVPTTAILTTPKPSTIPVPTTATLTTLEPSTTPVPTTATLTTPEPSTTLVPTTATLTTPEHSTTPVPTTATLTTPEHSTTPVPTTATLTTPEPSTTLTNLVSTISPVLTTTLTTPESTPIETILEQFFTTELTLLPTLESTTTIIPEQNSFLNLPEVALVSSDTSESSPFLNSDFCCFLPLGFYVLGLLWLLFASVVLILLLTWTWHVTPHSLDMEQSAALATSTHTTSLEVQRARQVTMPRAWLLFLQGSLPTFRSSLFLWVRPNGRVGPLVAGRRPSALSQGRGQDLLGTVGIRYSGHSL
notes: whole, on cells; Native receptor on mouse platelets or whole blood; also called murine GPIb α; mGPIb-α
B3: recombinant murine VWF-A1 with histidine for arginine at position 1326 (Example 1) (ligand)
chain: TCEACQEPGGLVAPPTDAPVSSTTPYVEDTPEPPLHNFYCSKLLDLVFLLDGSSMLSEAEFEVLKAFVVGMMERLHISQKRIRVAVVEYHDGSHAYLELKARKRPSELRRITSQIKYTGSQVASTSEVLKYTLFQIFGKIDRPEASHITLLLTASQEPPRMARNLVRYVQGLKKKKVIVIPVGIGPHASLKQIRLIEKQAPENKAFLLSGVDELEQRRDEIVSYLCDLAPEAPAPTQPP
notes: also called mutated murine protein; not shown: 10 vector-derived N-terminal amino acids including 6xHis (pQE9)
B4: recombinant wild-type murine VWF-A1 domain protein (amino acid residues 1238 to 1471), Example 3 (ligand)
chain: QEPGGLVAPPTDAPVSSTTPYVEDTPEPPLHNFYCSKLLDLVFLLDGSSMLSEAEFEVLKAFVVGMMERLHISQKRIRVAVVEYHDGSRAYLELKARKRPSELRRITSQIKYTGSQVASTSEVLKYTLFQIFGKIDRPEASHITLLLTASQEPPRMARNLVRYVQGLKKKKVIVIPVGIGPHASLKQIRLIEKQAPENKAFLLSGVDELEQRRDEIVSYLCDLAPEAPAPTQPP
notes: Generated in bacteria, with a single disulfide 1272-1458; also called murine rVWF-A1; WT murine VWF-A1 domain protein

How the values were obtained:
[1] = target: T1, human platelet glycoprotein Ib alpha (GPIb α) on human platelets (human, UniProt P07359 17-652); assay: interaction times of VWF-A1-coated beads on surface-immobilized platelets, wall shear stress 1 dyn cm^-2
T1 construct: whole, on cells; Native receptor on washed platelets or whole blood; also called GPIb alpha; hGPIb-α
Method: (§1) The duration of these interactions are measured by recording images from a Nikon X60 DIC objective (oil immersion) viewed at a frame rate of 235 fps (Speed Vision Technologies, San Diego, Calif.) and subjected to wall shear stresses (WSS) ranging from 0.5 to 3.0 dyn cm⁻². […] The force acting on the i tether bond was calculated from force balance equations and koff plotted as a function of these forces. […] Because these platelets cannot activate, the kinetics should be reflective of GPIb α in the resting state.

[2] = target: T1, human platelet glycoprotein Ib alpha …; assay: interaction times of VWF-A1-coated beads on surface-immobilized platelets, wall shear stress 1 dyn cm^-2; 1309I>V + 1326H>R double mutant; 1 dyn cm^-2 wall shear stress
Method: as §1

[3] = target: T2, murine plasma von Willebrand factor (VWF), wild type (mouse, UniProt Q8CIZ8 764-2813); assay: mouse whole blood perfused 4 min over surface-immobilized plasma VWF, 1600 s-1
T2 construct: Plasma-derived multimeric mouse VWF; also called mouse VWF; murine VWF
Method: (§2) Ex vivo platelet adhesion studies. Experiments were performed in a parallel-plate flow chamber as previously described (Offermanns, S., et al., 2006). […] Subsequently, the plate was washed and non-specific interactions blocked by the addition of TBS containing 3% BSA, pH 7.4 (1 hour, 37° C.). Human or murine plasma obtained from heparinized whole blood was added and the plates placed at 37° C. for an additional 2 hours. […] The number of platelets attached per unit area (0.07 mm²) and translocation velocities were determined by off-line analysis (Image-Pro Plus, Media Cybernetics). For GPIb α inhibition studies, the function-blocking mAb 6D1 (20 μg/ml) or mAb SZ2 (20 μg/ml; Beckman Coulter, Brea, Calif.) was added to anticoagulated human blood for 30 minutes prior to use. Experiments were performed in triplicate on two separate days. An ELISA was used to ensure equivalent coating concentration of plasma and recombinant proteins (Denis, C. et al., 1998).

[4] = target: T3, mouse plasma VWF containing the majority of the human A1 domain (amino acids 1240P through 1481G of human VWF) (mouse VWF with human A1 domain, UniProt Q8CIZ8 764-2813, limits assumed); assay: parallel-plate flow system: WT mouse blood infused over surface-immobilized plasma VWF
T3 construct: Plasma VWF from homozygous VWF-HA1 mice; also called VWF-HA1; VWF HA1

[5] = target: T4, murine plasma VWF containing the 1326R>H mutation (VWF^1326R>H) (mouse, UniProt Q8CIZ8 764-2813); assay: statement in Example 1; binding reduced
T4 construct: also called R1326H mutant mouse VWF; mutant murine VWF

[6] = target: T1, human platelet glycoprotein Ib alpha …; assay: human platelets perfused over immobilized mutant VWF-A1, wall shear rate 800 s-1
[7] = target: B2; assay: platelet adhesion to coated protein, wall shear rate 800 s^-1
Method: (§3) The protein was subsequently used in a series of in vitro flow chamber assays to assess function. […] After 5 minutes of continuous flow, adherent platelets were quantified.
(§4) Subsequently, the ability of murine and human platelets to interact with this mutant protein substrate was evaluated at a wall shear rate of 800 s⁻¹.

[8] = target: B2; assay: platelet translocation on coated protein, wall shear rate 800 s^-1
Method: as §3, §4

[9] = target: B2; assay: mouse whole blood perfused 4 min over surface-immobilized recombinant VWF-A1, 1600 s-1
Method: as §2

[10] = target: T1, human platelet glycoprotein Ib alpha …; assay: human whole blood over immobilized protein, parallel-plate flow chamber, 1600 s^-1
Method: as §2

T4 sequence (Q8CIZ8 other isoform, or with tags, fused parts or gaps limits assumed): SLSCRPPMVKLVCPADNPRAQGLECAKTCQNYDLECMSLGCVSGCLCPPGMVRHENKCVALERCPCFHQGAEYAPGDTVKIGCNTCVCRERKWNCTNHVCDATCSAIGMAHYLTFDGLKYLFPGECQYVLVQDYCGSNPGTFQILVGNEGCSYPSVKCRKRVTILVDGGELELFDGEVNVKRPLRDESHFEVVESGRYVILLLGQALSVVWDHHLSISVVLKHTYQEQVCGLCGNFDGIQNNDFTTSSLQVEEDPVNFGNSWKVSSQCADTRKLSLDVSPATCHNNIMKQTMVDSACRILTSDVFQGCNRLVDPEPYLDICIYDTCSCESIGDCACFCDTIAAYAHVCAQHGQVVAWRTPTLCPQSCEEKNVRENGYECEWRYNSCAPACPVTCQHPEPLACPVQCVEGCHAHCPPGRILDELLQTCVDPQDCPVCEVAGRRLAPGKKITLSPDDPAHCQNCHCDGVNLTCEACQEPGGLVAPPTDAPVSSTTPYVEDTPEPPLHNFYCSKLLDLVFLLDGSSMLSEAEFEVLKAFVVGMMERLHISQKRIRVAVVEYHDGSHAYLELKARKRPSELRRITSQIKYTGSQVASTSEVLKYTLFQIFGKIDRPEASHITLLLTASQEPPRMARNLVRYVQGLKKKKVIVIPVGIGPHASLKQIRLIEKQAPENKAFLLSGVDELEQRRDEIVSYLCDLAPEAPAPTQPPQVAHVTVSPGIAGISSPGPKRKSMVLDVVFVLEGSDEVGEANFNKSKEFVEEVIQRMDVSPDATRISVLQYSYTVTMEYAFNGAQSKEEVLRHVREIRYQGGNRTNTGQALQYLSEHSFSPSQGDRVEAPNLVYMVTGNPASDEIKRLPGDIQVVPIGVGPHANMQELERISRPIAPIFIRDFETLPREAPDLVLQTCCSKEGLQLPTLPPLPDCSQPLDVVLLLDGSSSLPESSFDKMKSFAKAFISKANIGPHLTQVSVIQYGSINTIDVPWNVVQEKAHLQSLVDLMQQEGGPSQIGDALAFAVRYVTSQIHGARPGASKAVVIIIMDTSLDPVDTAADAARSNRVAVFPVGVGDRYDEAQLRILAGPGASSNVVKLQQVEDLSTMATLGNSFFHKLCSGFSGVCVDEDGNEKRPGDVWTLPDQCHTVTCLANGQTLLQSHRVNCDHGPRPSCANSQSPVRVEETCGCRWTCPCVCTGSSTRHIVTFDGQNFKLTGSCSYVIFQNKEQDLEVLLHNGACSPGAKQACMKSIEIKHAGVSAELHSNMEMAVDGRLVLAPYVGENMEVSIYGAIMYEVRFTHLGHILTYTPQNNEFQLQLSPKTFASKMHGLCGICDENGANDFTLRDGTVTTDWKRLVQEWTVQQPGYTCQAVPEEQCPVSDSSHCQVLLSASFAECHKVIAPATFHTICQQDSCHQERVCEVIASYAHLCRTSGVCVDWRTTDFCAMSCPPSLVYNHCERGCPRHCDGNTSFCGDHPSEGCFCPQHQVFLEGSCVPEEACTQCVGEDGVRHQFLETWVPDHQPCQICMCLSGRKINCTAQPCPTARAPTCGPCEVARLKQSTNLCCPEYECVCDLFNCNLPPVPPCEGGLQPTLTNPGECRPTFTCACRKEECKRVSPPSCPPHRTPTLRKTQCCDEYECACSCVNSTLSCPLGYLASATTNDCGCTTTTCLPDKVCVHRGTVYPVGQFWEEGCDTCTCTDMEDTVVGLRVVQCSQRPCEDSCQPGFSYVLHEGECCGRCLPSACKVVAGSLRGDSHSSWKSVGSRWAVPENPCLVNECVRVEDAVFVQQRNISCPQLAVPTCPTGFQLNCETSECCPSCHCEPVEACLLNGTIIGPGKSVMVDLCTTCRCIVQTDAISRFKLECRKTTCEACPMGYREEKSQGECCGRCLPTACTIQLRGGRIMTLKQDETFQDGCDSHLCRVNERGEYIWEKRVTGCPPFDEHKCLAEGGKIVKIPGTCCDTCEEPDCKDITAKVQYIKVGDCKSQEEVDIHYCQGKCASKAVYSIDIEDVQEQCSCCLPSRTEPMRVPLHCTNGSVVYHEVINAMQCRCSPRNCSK
T2 sequence (Q8CIZ8 other isoform, or with tags, fused parts or gaps limits assumed): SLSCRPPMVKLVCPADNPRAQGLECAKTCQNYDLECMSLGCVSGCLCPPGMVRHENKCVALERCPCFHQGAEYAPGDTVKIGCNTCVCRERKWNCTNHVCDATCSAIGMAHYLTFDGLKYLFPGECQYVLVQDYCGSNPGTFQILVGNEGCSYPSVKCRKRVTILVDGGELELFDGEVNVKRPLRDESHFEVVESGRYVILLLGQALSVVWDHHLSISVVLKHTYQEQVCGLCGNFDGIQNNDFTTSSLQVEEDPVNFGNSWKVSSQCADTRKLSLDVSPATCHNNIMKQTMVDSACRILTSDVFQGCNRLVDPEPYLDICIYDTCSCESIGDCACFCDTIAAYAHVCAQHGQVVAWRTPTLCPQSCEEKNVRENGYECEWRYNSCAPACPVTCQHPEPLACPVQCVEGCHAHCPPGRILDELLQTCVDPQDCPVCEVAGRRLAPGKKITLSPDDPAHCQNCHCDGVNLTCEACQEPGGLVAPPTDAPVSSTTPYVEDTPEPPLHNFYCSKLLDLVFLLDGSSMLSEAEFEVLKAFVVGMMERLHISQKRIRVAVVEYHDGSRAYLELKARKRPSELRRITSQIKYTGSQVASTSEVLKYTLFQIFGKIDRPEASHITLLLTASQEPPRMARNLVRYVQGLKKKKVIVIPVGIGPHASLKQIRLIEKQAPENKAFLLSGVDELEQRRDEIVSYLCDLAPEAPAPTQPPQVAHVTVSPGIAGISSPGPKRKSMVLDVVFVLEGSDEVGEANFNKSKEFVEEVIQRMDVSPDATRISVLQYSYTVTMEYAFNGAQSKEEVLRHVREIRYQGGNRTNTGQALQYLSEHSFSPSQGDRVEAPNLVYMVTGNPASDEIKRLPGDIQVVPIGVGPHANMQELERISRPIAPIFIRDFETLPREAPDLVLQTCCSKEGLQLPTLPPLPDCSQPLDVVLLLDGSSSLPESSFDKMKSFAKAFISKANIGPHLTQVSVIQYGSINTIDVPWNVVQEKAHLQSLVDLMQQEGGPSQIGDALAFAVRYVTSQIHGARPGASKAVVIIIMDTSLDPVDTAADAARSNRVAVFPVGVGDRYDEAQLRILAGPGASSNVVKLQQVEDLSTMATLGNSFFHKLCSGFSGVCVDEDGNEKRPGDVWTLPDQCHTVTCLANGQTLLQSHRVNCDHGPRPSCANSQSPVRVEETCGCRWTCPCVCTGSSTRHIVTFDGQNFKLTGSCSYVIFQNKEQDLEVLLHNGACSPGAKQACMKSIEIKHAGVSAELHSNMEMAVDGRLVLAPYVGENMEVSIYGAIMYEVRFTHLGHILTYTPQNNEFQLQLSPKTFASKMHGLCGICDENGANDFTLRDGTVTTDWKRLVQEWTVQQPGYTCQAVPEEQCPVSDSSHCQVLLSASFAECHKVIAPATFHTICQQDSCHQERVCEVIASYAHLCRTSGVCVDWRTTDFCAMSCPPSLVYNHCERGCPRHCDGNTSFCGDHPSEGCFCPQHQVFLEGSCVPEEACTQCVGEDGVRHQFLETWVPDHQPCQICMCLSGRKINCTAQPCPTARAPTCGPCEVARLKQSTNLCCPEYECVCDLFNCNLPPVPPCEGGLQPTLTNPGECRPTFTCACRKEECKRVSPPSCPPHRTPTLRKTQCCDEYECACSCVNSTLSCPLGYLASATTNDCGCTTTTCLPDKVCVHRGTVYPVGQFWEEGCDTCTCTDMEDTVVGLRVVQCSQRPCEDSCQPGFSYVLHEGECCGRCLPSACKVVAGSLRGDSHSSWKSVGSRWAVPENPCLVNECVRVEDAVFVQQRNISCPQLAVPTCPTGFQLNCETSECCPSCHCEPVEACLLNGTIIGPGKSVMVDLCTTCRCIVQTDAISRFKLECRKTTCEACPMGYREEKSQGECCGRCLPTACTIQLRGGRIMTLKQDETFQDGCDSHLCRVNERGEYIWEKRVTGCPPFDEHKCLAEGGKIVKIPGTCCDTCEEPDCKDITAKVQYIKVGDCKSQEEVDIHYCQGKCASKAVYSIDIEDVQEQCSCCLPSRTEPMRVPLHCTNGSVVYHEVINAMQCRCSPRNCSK

With B1 the “fold reduction in koff versus the single 1326H>R mutant” value [1] was 2 fold and the koff [2] was 8.5 s⁻¹.

B2: binds [3]; no binding [4]; binds [5].

For B3, the binding result [6] was “binds”, the “fold reduction in platelet adhesion versus WT mouse protein” value [7] was roughly 5 fold and the “fold increase in translocation velocity versus WT mouse protein” value [8] was roughly 7 fold.

B4 was tested, and the binding result [9] was “binds” and the “platelet deposition relative to same-species control” value [10] was 25%.
